± gives the standard deviation of the averaged measurements.
system: ATP; test: switch fluorescence ratio, 500 uM ATP over buffer (Cy3 cluster intensity, sum of 5 cycles each) (fold (ratio)); higher = stronger signal-on switching upon ATP binding; sequences stand for … in TCGTCGGCAGCGTCAGATGTGTATAAGAGACAGTTTTTTTTTTTTTTTTTTTTTTTTT…TC; conditions: aptamer strand: ATP DNA aptamer (quencher-CACCTGGGGGAGTATTGCGGAGGAAGG + anchor), 100 nM annealed; ATP concentration: 500 uM
In short: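 Between each of five buffer/ATP cycles, the flow-cell was stripped with NaOH and re-annealed. Each cycle imaged Cy3-labelled switching-strand clusters, annealed to 100 nM quencher-labelled ATP aptamer on a modified Illumina MiSeq flow-cell, first in selection buffer and then after 15 min with 500 uM ATP at 22 °C. The fluorescence ratio is summed target-cycle over summed buffer-cycle Cy3 intensity per cluster, averaged per switch-domain sequence, with clusters outside 100-1000 RFU excluded.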
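Also: ATP exposure 15 min at 22 °C before imaging.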

| Sequence | switch fluorescence ratio |
| --- | --- |
| GGGACAGCCT | 1.01 ± 0.017 |
| GTATTTACTC | 1.04 ± 0.034 |
| AGATATTGGC | 1.03 ± 0.11 |
| GGCATGTGCG | 1.02 ± 0.031 |
| ATGGAAGTTT | 1.01 ± 0.022 |
| CGGGAATCGT | 1 ± 0.05 |
| GAGTACACGT | 0.9813 ± 0.0061 |
| GGTGACTGGG | 0.903 ± 0.042 |
| GGATTTGTTA | 0.983 ± 0.039 |
| TTTTTAACGC | 1.3 ± 0.29 |
| ATATGACGGT | 0.98 ± 0.029 |
| AAGCGAGTTC | 0.9981 ± 0.0089 |
| GGGGTGAGCA | 0.976 ± 0.029 |
| AAACCGGAAC | 2.26 ± 0.1 |
| GTGTTATCTG | 0.978 ± 0.012 |
| GATGTGTTGG | 0.9595 ± 0.0048 |
| CGGGATGTCA | 0.955 ± 0.038 |
| GAAATGATGG | 0.978 ± 0.0013 |
| GCGGGCACCA | 0.995 ± 0.024 |
| GGCTGACCGG | 1 ± 0.048 |
| TTCTTTGGGA | 1.02 ± 0.028 |
| TGGGACTATT | 1.01 ± 0.076 |
| GCCGCGGGGT | 1 ± 0.0017 |
| GCTTGGCAAC | 1.02 ± 0.012 |
| CGGGGCCTTT | 1.02 ± 0.037 |

| Sequence | switch fluorescence ratio |
| --- | --- |
| GGAAGGGGGG | 1.01 ± 0.024 |
| TAAGACGGTT | 1.01 ± 0.015 |
| TGAAGACTGT | 0.988 ± 0.045 |
| AATTTTATGT | 1.01 ± 0.011 |
| GTTCACGTAA | 1.16 ± 0.15 |
| CAGGTAGGGG | 0.9507 ± 0.0065 |
| GGCCACGGGG | 0.991 ± 0.0054 |
| ATTTTCCTTT | 1.02 ± 0.039 |
| TGGAATGGGT | 0.987 ± 0.032 |
| TAAAAGTGTT | 1.07 ± 0.059 |
| CTGGGGGAAG | 0.985 ± 0.034 |
| TAGCATGGTA | 0.976 ± 0.049 |
| CGGTGGGTAA | 1.01 ± 0.026 |
| AATTTAAAAC | 1.02 ± 0.031 |
| TCGTAGGGG | 0.961 ± 0.018 |
| AGGGTATTGT | 1.02 ± 0.075 |
| CACTAACTA | 1.121 ± 0.0035 |
| CCTAATGTAA | 1.08 ± 0.027 |
| TGACACGGTT | 0.9814 ± 0.0058 |
| GTTTAGAGTG | 0.944 ± 0.033 |
| AATACCATTT | 1.01 ± 0.035 |
| GAAGGGGGTA | 0.996 ± 0.028 |
| GAGTTATGGT | 1.02 ± 0.044 |
| TCAGGGGTAT | 1.03 ± 0.028 |
| TTAGAGGTTG | 1.13 ± 0.21 |

| Sequence | switch fluorescence ratio |
| --- | --- |
| TTCCTAATT | 1.03 ± 0.033 |
| TGGGGATGTA | 0.976 ± 0.014 |
| CTTATGGACT | 0.991 ± 0.033 |
| TTTGGGGTAT | 0.995 ± 0.028 |
| ATAGGACAAC | 1.038 ± 0.0081 |
| TAAATTGGCG | 0.987 ± 0.037 |
| AACATTTTAA | 0.965 ± 0.04 |
| TAAGAGGTTT | 0.995 ± 0.01 |
| GCATAAATAG | 1.02 ± 0.018 |
| TGCTTGTTTT | 0.9912 ± 0.0038 |
| TATGACGCAG | 0.993 ± 0.011 |
| GGGAATTTGT | 0.9942 ± 0.0096 |
| AGAGCACAGG | 1.09 ± 0.018 |
| GCATTTGGGG | 0.9686 ± 0.0032 |
| AGTTCGTCGT | 0.983 ± 0.015 |
| GGGGCGGGTA | 1 ± 0.078 |
| AAGGGCTCAT | 0.97409 ± 0.00079 |
| ACGGCTGCGG | 0.987 ± 0.035 |
| GGTTTTCGGC | 0.9771 ± 0.0087 |
| CCTTTCGGCT | 1.068 ± 0.0038 |
| GGCGTTGCGG | 0.9849 ± 0.0058 |
| GTGAAACGGG | 0.998 ± 0.07 |
| GGGCATATTC | 1.155 ± 0.0089 |
| GCCCCATTTT | 1.01 ± 0.024 |
| TTTCGGGTTT | 0.989 ± 0.028 |

| Sequence | switch fluorescence ratio |
| --- | --- |
| TTTCGTCATG | 1.03 ± 0.065 |
| GCTGGAGGGG | 0.985 ± 0.018 |
| TTTTTTTTG | 0.987 ± 0.019 |
| AGGAATTGCT | 1.03 ± 0.018 |
| GGTCTAGTCC | 1.018 ± 0.0034 |
| TGAAGTTTTC | 0.968 ± 0.022 |
| TGGGGCAAAT | 1.01 ± 0.034 |
| ATCGGATTAT | 0.969 ± 0.047 |
| TTGGGCCGCT | 0.974 ± 0.1 |
| GGTTGTGTTT | 0.991 ± 0.003 |
| ACCACGGGCG | 1.09 ± 0.018 |
| CGAGTCCCCT | 1.04 ± 0.033 |
| TTACTCCGGG | 1.3 ± 0.23 |
| TTTTCAAGGA | 0.993 ± 0.07 |
| GTGGGGGCGG | 1.01 ± 0.022 |
| TTTCTGCAGC | 1.24 ± 0.14 |
| AAATGAGTAG | 1.02 ± 0.013 |
| TAGTTTGGCT | 1.02 ± 0.047 |
| CCTATTAAAC | 1.04 ± 0.036 |
| GGTTTTCTCA | 1.002 ± 0.008 |
| TTTAAAGGGA | 1.06 ± 0.17 |
| TGTAAGGGAC | 1.07 ± 0.034 |
| AAAAATACGG | 0.965 ± 0.057 |
| TGGCTTTTAT | 0.95149 ± 0.00041 |
| AATATGGGT | 1 ± 0.034 |

| Sequence | switch fluorescence ratio |
| --- | --- |
| AATTATGGTT | 1.03 ± 0.012 |
| AGATGCTTAT | 0.979 ± 0.019 |
| CACGTCCAC | 1.44 ± 0.061 |
| AAACACAGGG | 1.07 ± 0.063 |
| GGGCGGTATA | 0.986 ± 0.025 |
| AAAATTCGTA | 1.028 ± 0.0022 |
| CCGGGCTGGA | 1.08 ± 0.074 |
| GAGGGCTGAG | 0.985 ± 0.02 |
| TATCGGGATG | 0.956 ± 0.03 |
| TCATTGCTTT | 1 ± 0.015 |
| TTTGGGTTTG | 1.01 ± 0.029 |
| GCTGTGGCGT | 1.02 ± 0.04 |
| TCGGGAAGGT | 1 ± 0.023 |
| CAGGACCCGG | 1.071 ± 0.0084 |
| ACATGGGGAA | 0.994 ± 0.012 |
| TGTAGGGGTA | 0.98 ± 0.045 |
| CTCGTCAGGG | 0.995 ± 0.029 |
| TGTTTGATAT | 0.9917 ± 0.005 |
| AAAGAGGAGG | 0.984 ± 0.036 |
| TTAGCTAAAA | 1.009 ± 0.01 |
| CTTGTCAAGT | 0.984 ± 0.071 |
| AGGTATGCAG | 0.9983 ± 0.0044 |
| GGAATGTACG | 1 ± 0.041 |
| ACAGTAACTT | 1.092 ± 0.0098 |
| GTGATTAGGG | 0.968 ± 0.022 |

| Sequence | switch fluorescence ratio |
| --- | --- |
| TAGCCTAGGT | 1.02 ± 0.017 |
| TGTTTTTGGC | 1 ± 0.025 |
| GGTGCAGCTG | 0.981 ± 0.016 |
| ACTAGGGCAG | 1.035 ± 0.005 |
| CGTGTCACTT | 1.01 ± 0.023 |
| GGACTATTTG | 1.003 ± 0.0011 |
| AGTGTGCTGG | 1.01 ± 0.043 |
| TATGATTCGG | 0.992 ± 0.057 |
| TTGGGGCCAT | 0.999 ± 0.029 |
| AGAGCGGGGG | 1.02 ± 0.038 |
| ATGCCGGTAT | 0.999 ± 0.053 |
| GGTTGTGTGT | 1 ± 0.005 |
| GCAGTCTGTG | 0.98 ± 0.03 |
| GGGATCGTTG | 0.965 ± 0.017 |
| ACGTAATTGG | 1.21 ± 0.01 |
| GGAGGAAATG | 0.949 ± 0.011 |
| CAGGTGATAC | 2.42 ± 0.29 |
| CGTAGTAGAC | 2.61 ± 0.26 |
| TCCGAAATCA | 1.6 ± 0.48 |
| CATTTGTGGC | 0.961 ± 0.058 |
| GGATTGGGCG | 0.986 ± 0.026 |
| GGATAGGACA | 1 ± 0.04 |
| TTCTCGCCAA | 1.08 ± 0.022 |
| ATCTCAATTT | 0.967 ± 0.027 |
| CATGGAACCT | 1.92 ± 0.11 |

| Sequence | switch fluorescence ratio |
| --- | --- |
| CTGTAAATTT | 0.991 ± 0.03 |
| ACAGGTTTTT | 1.01 ± 0.023 |
| TTTGTGAGT | 0.979 ± 0.017 |
| TAGCATGGGG | 0.991 ± 0.016 |
| TTATTGAGGT | 0.981 ± 0.012 |
| GTTTAGAAAG | 1.01 ± 0.017 |
| TGCATTCATT | 0.9937 ± 0.0093 |
| CCTTGGTCTT | 0.9979 ± 0.009 |
| GGCGCAAGGA | 2.41 ± 1.9 |
| TACGAGAGCC | 1.04 ± 0.037 |
| TTGCGGGGG | 1.01 ± 0.017 |
| ATATAAATTA | 1.01 ± 0.05 |
| GCCTTTCTGA | 0.9855 ± 0.0061 |
| TGTATAGGGT | 1.01 ± 0.048 |
| GGACGGAGGT | 0.959 ± 0.038 |
| TAAGTATTCG | 0.9972 ± 0.0086 |
| TGGTGAAATG | 1 ± 0.013 |
| TGGGAATTGA | 0.9976 ± 0.0057 |
| TGGTGGGGGC | 1 ± 0.052 |
| ACAGGGGATG | 1.08 ± 0.16 |
| CCTGGGCCTT | 1.01 ± 0.025 |
| AAGATTCGCC | 0.993 ± 0.012 |
| AATGTGCTGG | 0.993 ± 0.018 |
| ATATTTCACT | 1.03 ± 0.012 |
| TCGGGTAAAC | 1.03 ± 0.042 |

| Sequence | switch fluorescence ratio |
| --- | --- |
| TGGTCTTCAT | 1 ± 0.022 |
| TTTAGAGTCC | 1.05 ± 0.098 |
| TGCTCTGCTA | 1.683 ± 0.0023 |
| TTATGGCCTA | 1.01 ± 0.017 |
| CTGCTGAGGG | 0.99 ± 0.013 |
| CTTCTTGGAG | 0.967 ± 0.026 |
| CAGTAGGGCA | 0.982 ± 0.041 |
| TTTTTCGGCG | 1.01 ± 0.029 |
| TTTTAACGTG | 0.979 ± 0.021 |
| TTTGTGGGGT | 1.01 ± 0.047 |
| TTGGGAAACT | 1.15 ± 0.24 |
| AGATTAATTG | 0.994 ± 0.008 |
| TATGTATAGG | 1.03 ± 0.049 |
| ATCCGGGCGC | 1.08 ± 0.1 |
| ATGCTCGGGG | 1 ± 0.015 |
| TTTGTTAGAA | 1.02 ± 0.012 |
| TGTTTCATTC | 0.978 ± 0.012 |
| AGTTTGGTTG | 0.991 ± 0.053 |
| ATTTTGTAGT | 1.02 ± 0.029 |
| AAAAGCGGAT | 1.025 ± 0.0063 |
| AAATGTTAAG | 1.01 ± 0.032 |
| TTGTTTTGGG | 1 ± 0.019 |
| AGATTGCATG | 1.029 ± 0.0077 |
| AGGCAGAGTA | 0.992 ± 0.038 |
| TTTAATGTTT | 1 ± 0.017 |
